According to PMC9461191 (Journal of Translational Medicine, 2022):

Key:
HuB6 (human) = experiment: SPR; HuB6 and human FcγRs; who was immobilised not given; n = 3
HuB6 = experiment: flow cytometry on cells; settings: Ab 10 µg/ml (highest point of the titration); antigen transfected into Expi293 cells; parent: est. 17000; read off a plot
utomilumab = experiment: flow cytometry on cells; settings: Ab 10 µg/ml (highest point of the titration); antigen transfected into Expi293 cells; parent: est. 14000; read off a plot
urelumab = experiment: flow cytometry on cells; settings: Ab 10 µg/ml (highest point of the titration); antigen transfected into Expi293 cells; parent: est. 17000; read off a plot
mouse 4-1BB-ECD-mFc = target: T1, mouse 4-1BB-ECD-mFc (Mus musculus, UniProt P20334); experiment: ELISA; indirect ELISA; plates coated with 4-1BB-mFc (1 μg/mL mouse, 350 ng/mL cynomolgus) in carbonate buffer; serially diluted antibodies, room temperature 2 h; HRP goat anti-human Fc; settings: both partners purified
T1 construct: mouse 4-1BB, UniProt P20334, extracellular domain; also called Mu4-1BB; murine 4-1BB; source: Expi293F, transfected, purified (MabSelect PrismA); not shown: Fc (mouse), C-terminal, kept

cynomolgus 4-1BB-mFc = target: T2, cynomolgus 4-1BB-mFc (Macaca fascicularis, UniProt A9YYE7); experiment: as above; settings: both partners purified
T2 construct: cynomolgus monkey 4-1BB, UniProt A9YYE7, extracellular domain; also called Cy4-1BB; cynomolgus monkey 4-1BB; source: Expi293F, transfected, purified (MabSelect PrismA); not shown: Fc (mouse), C-terminal, kept

human 4-1BB ECD = target: T3, human 4-1BB ECD (Homo sapiens, UniProt Q07011); experiment: SPR; Biacore T200, 25 °C; human 4-1BB ECD amine-coupled on a CM5 chip to 300 RU; antibody from 80 μg/mL in two-fold dilutions injected at 30 μL/min; 1:1 Langmuir model; settings: both partners purified
T3 construct: human 4-1BB (CD137, TNFRSF9), extracellular domain, coupled to the CM5 chip for SPR; also called CD137; TNFRSF9

Hu4-1BB-His = target: T4, Hu4-1BB-His (Homo sapiens, UniProt Q07011); experiment: BLI; Octet Red96, 25 °C; antibody loaded on AHC biosensors; Hu4-1BB-His 200-12.5 nM in 1 × PBS; 500 s association, 30 min dissociation; settings: both partners purified
T4 construct: human 4-1BB (CD137, TNFRSF9), His-tagged, bought; No catalogue number is printed; also called human 4-1BB; source: bought: Acro biosystems

Sequence of HuB6 (human) (heavy, as listed by the source, chain 1 of 2): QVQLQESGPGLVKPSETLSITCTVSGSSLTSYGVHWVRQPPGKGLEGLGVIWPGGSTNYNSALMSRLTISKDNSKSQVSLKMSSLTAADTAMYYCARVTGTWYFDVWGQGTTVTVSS
Sequence of HuB6 (human) (light, as listed by the source, chain 2 of 2): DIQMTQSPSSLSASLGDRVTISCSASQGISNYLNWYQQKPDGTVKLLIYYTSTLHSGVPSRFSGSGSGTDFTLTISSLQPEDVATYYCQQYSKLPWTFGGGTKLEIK
Sequence of human FcγRIA (P12314 16-374): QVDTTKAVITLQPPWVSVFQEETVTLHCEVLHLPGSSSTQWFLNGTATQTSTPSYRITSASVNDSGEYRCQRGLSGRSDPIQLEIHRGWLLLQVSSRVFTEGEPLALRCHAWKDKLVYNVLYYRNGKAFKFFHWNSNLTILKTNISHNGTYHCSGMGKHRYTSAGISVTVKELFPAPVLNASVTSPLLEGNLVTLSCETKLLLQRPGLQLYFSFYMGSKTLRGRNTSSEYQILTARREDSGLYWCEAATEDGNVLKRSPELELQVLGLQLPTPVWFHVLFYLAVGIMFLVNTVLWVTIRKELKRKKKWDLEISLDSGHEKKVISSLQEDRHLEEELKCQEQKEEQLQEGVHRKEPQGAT
T1 sequence (P20334 24-187): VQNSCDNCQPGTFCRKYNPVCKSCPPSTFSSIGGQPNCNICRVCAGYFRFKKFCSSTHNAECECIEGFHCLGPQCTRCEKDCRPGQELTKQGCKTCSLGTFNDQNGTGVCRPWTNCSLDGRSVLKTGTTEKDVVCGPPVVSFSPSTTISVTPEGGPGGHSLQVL
T3 sequence (Q07011 24-186): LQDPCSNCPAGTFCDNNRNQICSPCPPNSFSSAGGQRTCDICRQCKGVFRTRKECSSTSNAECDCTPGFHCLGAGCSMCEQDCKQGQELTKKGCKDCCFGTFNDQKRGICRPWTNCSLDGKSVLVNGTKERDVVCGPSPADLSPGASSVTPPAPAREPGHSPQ

Molecule	response (HuB6)	response (utomilumab)	response (urelumab)	binding result (mouse 4-1BB-ECD-mFc)	other results
human FcγRIA (from UniProt P12314 16-374) (receptor)	–	–	–	–	Kd (HuB6 (human)): 8.86 nM; koff (HuB6 (human)): 0.0045 s⁻¹; kon (HuB6 (human)): 531000 M⁻¹ s⁻¹
wild-type (WT) human 4-1BB antigen on Expi293F cells (from UniProt Q07011) M101	19000 Mean FITC	2600 Mean FITC	17000 Mean FITC	–	–
urelumab (antibody, V domains shown, IgG4; IgG4 mAb; also called BMS-663513; urelumab-IgG4; source: Expi293F, transfected, purified (MabSelect PrismA)) VH: QVQLQQWGAGLLKPSETLSLTCAVYGGSFSGYYWSWIRQSPEKGLEWIGEINHGGYVTYNPSLESRVTISVDTSKNQFSLKLSSVTAADTAVYYCARDYGPGNYDWYFDLWGRGTLVTVSS VL: EIVLTQSPATLSLSPGERATLSCRASQSVSSYLAWYQQKPGQAPRLLIYDASNRATGIPARFSGSGSGTDFTLTISSLEPEDFAVYYCQQRSNWPPALTFGGGTKVEIK	–	–	–	no binding	Kd (human 4-1BB ECD): 5.34 ± 0.49 nM; Kd (Hu4-1BB-His): 5.76 ± 0.85 nM

The next lines start with results.

response (HuB6)	response (utomilumab)	response (urelumab)	binding result (mouse 4-1BB-ECD-mFc)	Molecule	other results
20000 Mean FITC	3900 Mean FITC	17000 Mean FITC	–	wild-type (WT) human 4-1BB antigen on Expi293F cells (from UniProt Q07011) I132	–
15000 Mean FITC	13000 Mean FITC	900 Mean FITC	–	wild-type (WT) human 4-1BB antigen on Expi293F cells (from UniProt Q07011) N42	–
–	–	–	no binding	utomilumab (antibody, V domains shown, IgG2; IgG2 mAb; also called PF-05082566; utomilumab-IgG2; source: Expi293F, transfected, purified (MabSelect PrismA)) VH: EVQLVQSGAEVKKPGESLRISCKGSGYSFSTYWISWVRQMPGKGLEWMGKIYPGDSYTNYSPSFQGQVTISADKSISTAYLQWSSLKASDTAMYYCARGYGIFDYWGQGTLVTVSS VL: SYELTQPPSVSVSPGQTASITCSGDNIGDQYAHWYQQKPGQSPVLVIYQDKNRPSGIPERFSGSNSGNTATLTISGTQAMDEADYYCATYTGFGSLAVFGGGTKLTVL	EC50 (cynomolgus 4-1BB-mFc): 0.038 nM
